Experimental data taken from patent publication US20140087995A1 (published 2014).
Values belong to the binder of their own block, whether it stands above or below them. Numbered stars: 1 amine (or outer) side, 2 acyl side, 3 side chain; on linkers, the order of the positions; unused ones are H or OH. Bridge positions count the residues as written; N and C are the ends. Side chains are listed from the residue outwards. Ends that are not written are not given here. * marks the point of attachment. C20 diacid = O=C(O)CCCCCCCCCCCCCCCCCCC(=O)*; γGlu = O=C(O)[C@H](CCC(=O)[*:2])N[*:1]; AEEA = NCCOCCOCC(=O)O

Biological target: T1, human calcitonin receptor (human, UniProt P30988 25-474)
T1 construct: whole, on cells; also called hCTR; hCT
T1 sequence (looked up): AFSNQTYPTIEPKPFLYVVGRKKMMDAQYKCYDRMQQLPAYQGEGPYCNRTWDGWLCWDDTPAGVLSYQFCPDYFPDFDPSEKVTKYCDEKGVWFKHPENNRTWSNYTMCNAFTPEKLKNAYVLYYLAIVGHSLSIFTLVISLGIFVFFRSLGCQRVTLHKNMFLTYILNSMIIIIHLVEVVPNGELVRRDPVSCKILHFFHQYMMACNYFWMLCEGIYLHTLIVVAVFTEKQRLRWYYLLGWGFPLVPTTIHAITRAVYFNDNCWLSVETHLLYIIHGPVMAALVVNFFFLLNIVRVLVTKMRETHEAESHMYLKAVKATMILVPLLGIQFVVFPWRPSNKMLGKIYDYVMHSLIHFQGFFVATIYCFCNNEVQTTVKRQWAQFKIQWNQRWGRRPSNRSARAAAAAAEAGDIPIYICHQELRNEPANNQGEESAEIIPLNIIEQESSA
Assay: SPA competition with 125I-calcitonin, membranes of BHK hCTR cells (Assay VII)
Procedure, shortened: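 BHK hCTR membranes 35 ng/μL + SPA beads 0.05 mg/well; buffer 50 mM Hepes pH 7.4, 1 mM CaCl2, 5 mM MgCl₂, 0.1% OA, 0.02% Tween20. 120 min, 25° C., shaking. Scintillation count; IC50 by one-site binding competition.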

IC50: 5.66 nM
B1: N^ε1-[2-[2-[2-[[(4S)-4-carboxy-4-(19-carboxynonadecanoylamino)butanoyl]amino]ethoxy]ethoxy]acetyl]-[His14,Arg17,Pro21,Pro27,Pro34]-h-amylin (peptide)
peptide: K([AEEA-γGlu-C20 diacid])CNTATCATQRLAHFLRHSSPNFGAIPSSTNVGPNTY-NH2
modifications: disulfide 2-7; N-terminus assumed
SMILES: CC[C@H](C)[C@H](NC(=O)[C@H](C)NC(=O)CNC(=O)[C@H](Cc1ccccc1)NC(=O)[C@H](CC(N)=O)NC(=O)[C@@H]1CCCN1C(=O)[C@H](CO)NC(=O)[C@H](CO)NC(=O)[C@H](Cc1c[nH]cn1)NC(=O)[C@H](CCCNC(=N)N)NC(=O)[C@H](CC(C)C)NC(=O)[C@H](Cc1ccccc1)NC(=O)[C@H](Cc1c[nH]cn1)NC(=O)[C@H](C)NC(=O)[C@H](CC(C)C)NC(=O)[C@H](CCCNC(=N)N)NC(=O)[C@H](CCC(N)=O)NC(=O)[C@@H](NC(=O)[C@H](C)NC(=O)[C@@H]1CSSC[C@H](NC(=O)[C@@H](N)CCCCNC(=O)COCCOCCNC(=O)CC[C@H](NC(=O)CCCCCCCCCCCCCCCCCCC(=O)O)C(=O)O)C(=O)N[C@@H](CC(N)=O)C(=O)N[C@@H]([C@@H](C)O)C(=O)N[C@@H](C)C(=O)N[C@@H]([C@@H](C)O)C(=O)N1)[C@@H](C)O)C(=O)N1CCC[C@H]1C(=O)N[C@@H](CO)C(=O)N[C@@H](CO)C(=O)N[C@H](C(=O)N[C@@H](CC(N)=O)C(=O)N[C@H](C(=O)NCC(=O)N1CCC[C@H]1C(=O)N[C@@H](CC(N)=O)C(=O)N[C@H](C(=O)N[C@@H](Cc1ccc(O)cc1)C(N)=O)[C@@H](C)O)C(C)C)[C@@H](C)O
notes: also called compound 68

IC50: 8.68 nM
B2: N^ε1-[2-[2-[2-[[(4S)-4-carboxy-4-(19-carboxynonadecanoylamino)butanoyl]amino]ethoxy]ethoxy]acetyl]-[His14,Arg17,Pro21,Pro27]-h-amylin (peptide)
peptide: K([AEEA-γGlu-C20 diacid])CNTATCATQRLAHFLRHSSPNFGAIPSSTNVGSNTY-NH2
modifications: disulfide 2-7; N-terminus assumed
SMILES: CC[C@H](C)[C@H](NC(=O)[C@H](C)NC(=O)CNC(=O)[C@H](Cc1ccccc1)NC(=O)[C@H](CC(N)=O)NC(=O)[C@@H]1CCCN1C(=O)[C@H](CO)NC(=O)[C@H](CO)NC(=O)[C@H](Cc1c[nH]cn1)NC(=O)[C@H](CCCNC(=N)N)NC(=O)[C@H](CC(C)C)NC(=O)[C@H](Cc1ccccc1)NC(=O)[C@H](Cc1c[nH]cn1)NC(=O)[C@H](C)NC(=O)[C@H](CC(C)C)NC(=O)[C@H](CCCNC(=N)N)NC(=O)[C@H](CCC(N)=O)NC(=O)[C@@H](NC(=O)[C@H](C)NC(=O)[C@@H]1CSSC[C@H](NC(=O)[C@@H](N)CCCCNC(=O)COCCOCCNC(=O)CC[C@H](NC(=O)CCCCCCCCCCCCCCCCCCC(=O)O)C(=O)O)C(=O)N[C@@H](CC(N)=O)C(=O)N[C@@H]([C@@H](C)O)C(=O)N[C@@H](C)C(=O)N[C@@H]([C@@H](C)O)C(=O)N1)[C@@H](C)O)C(=O)N1CCC[C@H]1C(=O)N[C@@H](CO)C(=O)N[C@@H](CO)C(=O)N[C@H](C(=O)N[C@@H](CC(N)=O)C(=O)N[C@H](C(=O)NCC(=O)N[C@@H](CO)C(=O)N[C@@H](CC(N)=O)C(=O)N[C@H](C(=O)N[C@@H](Cc1ccc(O)cc1)C(N)=O)[C@@H](C)O)C(C)C)[C@@H](C)O
notes: also called compound 69
